Assay results published in patent US20220048967A1 (published 2022).
Numbered stars: 1 amine (or outer) side, 2 acyl side, 3 side chain; on linkers, the order of the positions; unused ones are H or OH. Square brackets hold non-standard residues; d marks the D form. Side chains are listed from the residue outwards. Ends that are not written are not given here. * marks the point of attachment. C20 diacid = O=C(O)CCCCCCCCCCCCCCCCCCC(=O)*; γGlu = O=C(O)[C@H](CCC(=O)[*:2])N[*:1]; AEEA = NCCOCCOCC(=O)O; Aib = CC(C)(N)C(=O)O

T1: human GIP receptor (human, UniProt P48546 22-466)
T1 sequence (looked up): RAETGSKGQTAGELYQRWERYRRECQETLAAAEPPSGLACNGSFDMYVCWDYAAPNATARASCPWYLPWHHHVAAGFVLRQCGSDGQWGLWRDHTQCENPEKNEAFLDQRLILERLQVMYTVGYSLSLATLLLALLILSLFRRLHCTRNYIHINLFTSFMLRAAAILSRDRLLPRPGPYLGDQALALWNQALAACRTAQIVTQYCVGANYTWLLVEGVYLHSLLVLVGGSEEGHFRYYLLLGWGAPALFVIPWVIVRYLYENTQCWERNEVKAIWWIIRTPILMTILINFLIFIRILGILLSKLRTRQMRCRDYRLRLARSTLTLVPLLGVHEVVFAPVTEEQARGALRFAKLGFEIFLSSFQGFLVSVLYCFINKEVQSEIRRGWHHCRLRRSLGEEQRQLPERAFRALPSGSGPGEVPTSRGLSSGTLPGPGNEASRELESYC

T2: human gastric inhibitory peptide receptor (GIPR) (human, UniProt P48546 22-466)
T2 sequence (looked up): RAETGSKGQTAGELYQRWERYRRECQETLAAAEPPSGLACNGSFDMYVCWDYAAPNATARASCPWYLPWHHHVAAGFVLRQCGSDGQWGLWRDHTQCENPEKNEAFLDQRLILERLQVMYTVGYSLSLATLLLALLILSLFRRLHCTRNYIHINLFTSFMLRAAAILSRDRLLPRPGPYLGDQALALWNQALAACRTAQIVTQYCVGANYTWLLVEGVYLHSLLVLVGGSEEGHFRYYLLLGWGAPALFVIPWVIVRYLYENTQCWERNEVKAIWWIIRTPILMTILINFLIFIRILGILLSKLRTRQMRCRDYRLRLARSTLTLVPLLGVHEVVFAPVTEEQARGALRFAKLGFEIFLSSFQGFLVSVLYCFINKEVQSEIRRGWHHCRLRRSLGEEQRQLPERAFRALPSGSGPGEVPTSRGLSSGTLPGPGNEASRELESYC


How the values were obtained:
Test in all cases: cell-based or functional assay
human GIP receptor = molecular target: T1, human GIP receptor
human GLP-1 receptor = human GLP-1 receptor (human, UniProt P43220 24-463)
[1] = molecular target: T2, human gastric inhibitory peptide …
[2] = molecular target: human GLP-1 receptor (GLP-1R) (human, UniProt P43220 24-463)

| Binder | hGLP1R cAMP Rel EC50 (human GLP-1 receptor) [pM] | hGIPR cAMP EC50 ratio [1] | hGIPR cAMP Rel EC50 [1] [pM] | hGLP1R cAMP EC50 ratio [2] | hGLP1R cAMP Rel EC50 [2] [pM] | also measured |
| --- | --- | --- | --- | --- | --- | --- |
| Y[Aib]EGTFTSDK([AEEA-AEEA-γGlu-C20 diacid])SILLDKIAQ[Aib]AFIEYLIEGGPSSGAPPPS-NH2 (N-terminus assumed; SMILES CC[C@H](C)[C@H](NC(=O)[C@H](CCCCN)NC(=O)[C@H](CC(=O)O)NC(=O)[C@H](CC(C)C)NC(=O)[C@H](CC(C)C)NC(=O)[C@@H](NC(=O)[C@H](CO)NC(=O)[C@H](CCCCNC(=O)COCCOCCNC(=O)COCCOCCNC(=O)CC[C@H](NC(=O)CCCCCCCCCCCCCCCCCCC(=O)O)C(=O)O)NC(=O)[C@H](CC(=O)O)NC(=O)[C@H](CO)NC(=O)[C@@H](NC(=O)[C@H](Cc1ccccc1)NC(=O)[C@@H](NC(=O)CNC(=O)[C@H](CCC(=O)O)NC(=O)C(C)(C)NC(=O)[C@@H](N)Cc1ccc(O)cc1)[C@@H](C)O)[C@@H](C)O)[C@@H](C)CC)C(=O)N[C@@H](C)C(=O)N[C@@H](CCC(N)=O)C(=O)NC(C)(C)C(=O)N[C@@H](C)C(=O)N[C@@H](Cc1ccccc1)C(=O)N[C@H](C(=O)N[C@@H](CCC(=O)O)C(=O)N[C@@H](Cc1ccc(O)cc1)C(=O)N[C@@H](CC(C)C)C(=O)N[C@H](C(=O)N[C@@H](CCC(=O)O)C(=O)NCC(=O)NCC(=O)N1CCC[C@H]1C(=O)N[C@@H](CO)C(=O)N[C@@H](CO)C(=O)NCC(=O)N[C@@H](C)C(=O)N1CCC[C@H]1C(=O)N1CCC[C@H]1C(=O)N1CCC[C@H]1C(=O)N[C@@H](CO)C(N)=O)[C@@H](C)CC)[C@@H](C)CC) [Example 23] | 190 |  |  |  |  | hGIPR cAMP EC50 ratio (human GIP receptor): 0.754; hGIPR cAMP Rel EC50 (human GIP receptor): 204 pM; hGLP1R cAMP EC50 ratio (human GLP-1 receptor): 0.342 |
| XXEGTFTSDYSIXLDXKAQXEFIXYLIEGGPSSGAPPPS (D-Tyr1, Aib2, αMeL13, Orn16, (2-[2-(2-Amino-ethoxy)-ethoxy]-acetyl)2-(γ-Glu)-CO-(CH2)18-CO2H on K17, Aib20, D-Glu24, C-terminal NH2) [Example 355] |  | 0.111 | 685 | 0.0285 | 896 |  |
| XXEGTFTSDYSIXLDKKAQXAFIXYLIEGGPSSGAPPPS (D-Tyr1, Aib2, αMeL13, (2-[2-(2-Amino-ethoxy)-ethoxy]-acetyl)2-(γ-Glu)-CO-(CH2)18-CO2H on K17, Aib20, D-Glu24, C-terminal NH2) [Example 356] |  | 0.364 | 386 | 0.0647 | 506 |  |
| XXEGTFTSDYSIXLDXKAQXAFIXYLIEGGPSSGAPPPS (D-Tyr1, Aib2, αMeL13, Orn16, (2-[2-(2-Amino-ethoxy)-ethoxy]-acetyl)2-(γ-Glu)-CO-(CH2)18-CO2H on K17, Aib20, D-Glu24, C-terminal NH2) [Example 357] |  | 0.366 | 384 | 0.181 | 181 |  |
| YXEGTXTSDYSIXLDXKAQXEFIXYLIEGGPSSGAPPPS (Aib2; αMeF(2F)6; αMeL13; Orn16; K17((2-[2-(2-Amino-ethoxy)-ethoxy]-acetyl)2-(γ-Glu)-CO-(CH2)18-CO2H); Aib20; D-Glu24; C-terminal NH2) [Example 3] |  |  |  |  |  | hGIPR cAMP Rel EC50 (human GIP receptor): 41.1 pM |
| XXEGTFTSDYSIXLDXKAQXAFVEYLIAGGPSSGAPPPS (D-Tyr1, Aib2, αMeL13, Orn16, (2-[2-(2-Amino-ethoxy)-ethoxy]-acetyl)2-(γ-Glu)-CO-(CH2)18-CO2H on K17, Aib20, C-terminal NH2) [Example 358] |  | 0.662 | 183 | 0.26 | 117 |  |
| YXEGTFTSDYSILLDKKAQXAFIEYLIEGGPSSGAPPPS (αMePro2; K17((2-[2-(2-Amino-ethoxy)-ethoxy]-acetyl)2-(γ-Glu)-CO-(CH2)18-CO2H); Aib20; C-terminal NH2) [Example 87] | 80.1 |  |  |  |  |  |
| YXEGTFTSDYSILLDKKAQXAFIEYLIEGGPSSGAPPPS (Aib2; K17((2-[2-(2-Amino-ethoxy)-ethoxy]-acetyl)-(ϵK)-(ϵK)-CO-(CH2)18-CO2H); Aib20; C-terminal NH2) [Example 114] | 267 |  |  |  |  |  |
| YXEGTFTSDYSILLDKKAQXAFIEYLIEGGPSSGAPPPS (Aib2; K17((2-[2-(2-Amino-ethoxy)-ethoxy]-acetyl)-AOC-(γ-Glu)-CO-(CH2)18-CO2H); Aib20; C-terminal NH2) [Example 108] | 294 |  |  |  |  |  |
| YXEGTFTSDYSILLDKKAQXAFIEYLIEGGPSSGAPPPS (Aib2; K17((2-[2-(2-Amino-ethoxy)-ethoxy]-acetyl)-(Trx)-(γ-Glu)-CO-(CH2)18-CO2H); Aib20; C-terminal NH2) [Example 111] | 308 |  |  |  |  |  |
